Measurements published in the DeepSol protein solubility set.

test: soluble on expression in E. coli; label from the status in PepcDB or PDB records

Soluble on expression in E. coli, not soluble:
MATNKREKQLERECHEQKTSQAVCETKEELEKSWKDFQKVSNEYKEAVTACRKYVEEKSRPKRTVLDGDMGEPTEDQEDTNDHARRRRHHNHEGHHGNDMKHRENMDRKKHGTHVDHHGRVRRNGDHDPNDPNVDHTGHNHRVKRSIDDDPSDTTIDHTRHNHRRKRNQDDDPTDTTIDHTGHNHRRRRSDDHDPNDPNVDHTGHNHRRKRNHDDDPSDTTIDHTGHNHRRRRSDDHDPNDPNVDHIGHNHHRRKRNHDDDPSDTTIDHTGHNHRRRRSEDHDPNDPNVDHTGHNHRRRRDQDDDPSDTTIDHTGHNHRRRRSDDHDPNDPNVDHTGHNHKRRHVIASRSRRTVCSTAGHDQLSAMSSKFTKHCERENICLPDEDLPKGKQQDDILALQKLRAKKYSEYLTQVSKCYGKLHGQSSGNDSWAPSAQSQEQYNPVYPSLSGTPNFFSSSAQAYEAAPYYPAKSTAAKTTSKPVQKPYRRHHQRPNKAWSSGSQQFHLVTIDPSKPHEKPSVSKIAEAAPKPIFKVARGTVKTVNKRGTKGVQKMPNHRLEGNSWETNGLQNQTARGGGGGRGRGRGSGGRGRGGFNRGGRFNGAPKPSNNKDDIPYVHLPDDSPAITLNVSSENITAFHGFDSVFTTKHNFPVLIDNKIYGSCDHYYQICKVTDLTGVSSDKLNRGVRDENGKPIVETIEDAEKKSHSALAKDIIKAANISKEKVDEWRNSKGLETIQKALHAKVTQSAHLREALKESGDNILVHAFARDSIYGTGCTIPAIKKWLDDLSKAGVKHLKIPATFPLNKTTVQHCPVFAQGRNVLGVILMQLRQKISSGEIQVVDMSRIFNALRVNNAPAEPMDTSSKFGFISDTKSIGTF, MATVKTVLVKGRCNSRGAYPLAVQVLHKRKKKVFYTGYSITPCEFDSFSGRVLFNGVYTMETVRRMNRTCRKICKILDKAIGILEREGNEYTTCDISRVYETLTGKVGFYSYFRERIRVLFDTGHEGTAKAYEATLHSMQKHLCKTDFPFAHLSSRLVIKYRDTLLEAGVGKNTIGFYLHNMKAVYRRGCLELNLVFPSPFCNIRIRSEKTVKQSLPMKQVKSLANLSLSVGTPECLARDVFMFSIYTRGMSFVDIAFLKKSDIFPGVIRYRRQKTGQLLEIGINRQIQNLLERYGDTSGDYLFPLVDESETPYSGYKKAYNRMRYALKKVS, MAVAYEGQLTGHRGWVTSLACPQTPETATKVVSTSRDKTLLSWGPNPDRHSSECSYGLPDRRLEGHSAFVSDVALSNNGNFAVSASWDHSLRLWNLQNGQCQYKFLGHTKDVLSVAFSPDNRQIVSGGRDNALRVWNVKGECMHTLSRGAHTDWVSCVRFSPSLDAPVIVSGGWDNLVKVWDLATGRLVTDLKGHTNYVTSVTVSPDGSLCASSDKDGVARLWDLTKGEALSEMAAGAPINQICFSPNRYWMCAATEKGIRIFDLENKDIIVELAPEHQGSKKIVPECVSIAWSADGSTLYSGYTDNVIRVWGVSENA, MAVREYQKKRRRERIFRAAMELFRNRGFQETTATEIAKAAHVSRGTFFNYYPYKEAVLLDYGSQLLAGLREEVRRLLAQGREPVEVLRHLFRVLAEGTAREKDLLLPMFYELLNPDPVRARAAFEALPLGDLIAEILKPLREQGVLRQDFSLERMGRTLADLYFLSALRWAAYTPGRDLAEELEKNLRLLLEGMLVREAPAPGGL, MAVSFKVKERKVMINGQPAKIRYAQTLKTGDMDLSEICDLTSKISAVSEGDVRSIINTVTGLVITGLKQGRAISLGELGRFRISLSSKAAKEGEEFTVENIRRARVLFLPGGDIRRACRQIRLKGINMLRPGEQQGGTPSVPDSPEGGGEQGSGGGGL, MAYATVEDMVARFGELEVLQLTDRNNEGLIDREVAQTALVDATAEIDAYLGRFRRPFEDLPPILVRLCCDIARYRLTAAQGVLITDEIRNRYKIDVLDLLRAMAKGEVQLGVDDSGEEVAAGEDGIVFVNGKNKVFGRDH, MAYQLYRNTTLGNSLQESLDELIQSQQITPQLALQVLLQFDKAINSALAQRVRNRVNFRVRMSSCIWKSVLLTLRAYVDLTHHSKIWLVWFGNLFYNRCAKFIHSMCFRIAFRF, MCESDKLHDEINVIDIKIYPNRFLKPKTTELLLNKICGLEGYVRFLIHGPSLPKKVFYGPGKGHDVNHGDRKSILVNGNGIDLKVMVGEIIITVELDKFNDFMNQLEDILTETLSVEYSLLVGIFTRTTSTISDYLKYGIGFENLIDKRYIGLIDSRARSSESISIIKLEHHHHHH, MCFIMSKRNTQLRRHTIVKLVNEQGEVSVEALSSQFETSEVTIRKDLASLEKNGQLLRRYGGAIALPKEVMHDELNEKVSVRKISLAKAAAKLIRDHNRIVIDSGSTTAALIQQLNDKRGLVVMTNSLHVANALNELENEPTLLMTGGTWDTHSESFQGKVAESVLRSYDFDQLFIGADGIDLDRGTTTFNELVGLSKVMAEVSREVIVMIESDKVGRKIPNLELSWDNIDVLVTDHELSDEFAKQIESHQVRVIRATVK

Soluble on expression in E. coli, soluble:
MATNKERLFAAGALGPGSGYPGAGFPFAFPGALRGSPPFEMLSPSFRGLGQPDLPKEMASLSVETQSTSSEEMVPSSPSPPPPPRVYKPCFVCNDKSSGYHYGVSSCEGCKGFFRRSIQKNMVYTCHRDKNCIINKVTRNRCQYCRLQKCFEVGMSKEAVRNDRNKKKKEVKEEGSPDSYELSPQLEELITKVSKAHQETFPSLCQLGKYTTNSSADHRVQLDLGLWDKFSELATKCIIKIVEFAKRLPGFTGLSIADQITLLKAACLDILMLRICTRYTPEQDTMTFSDGLTLNRTQMHNAGFGPLTDLVFAFAGQLLPLEMDDTETGLLSAICLICGDRMDLEEPEKVDKLQEPLLEALRLYARRRRPSQPYMFPRMLMKITDLRGISTKGAERAITLKMEIPGPMPPLIREMLENPEMFEDDSSQPGPHPNASSEDEVPGGQGKGGLKSPA, MATVQVDIVTPERKVFQGEADIVIARGVEGELGVMAGHIPLVTPLKTAPVRIKQGDKETLIAVSGGFLEVRPDKVNILADTAELPEEIDVERAKKAKARHETILKRLDKTDKDYLRHKRALERAEVRLQVANSKS, MATVSRLRPYATTVFAEMSALATRIGAVNLGQGFPDEDGPPKMLQAAQDAIAGGVNQYPPGPGSAPLRRAIAAQRRRHFGVDYDPETEVLVTVGATEAIAAAVLGLVEPGSEVLLIEPFYDSYSPVVAMAGAHRVTVPLVPDGRGFALDADALRRAVTPRTRALIINSPHNPTGAVLSATELAAIAEIAVAANLVVITDEVYEHLVFDHARHLPLAGFDGMAERTITISSAAKMFNCTGWKIGWACGPAELIAGVRAAKQYLSYVGGAPFQPAVALALDTEDAWVAALRNSLRARRDRLAAGLTEIGFAVHDSYGTYFLCADPRPLGYDDSTEFCAALPEKVGVAAIPMSAFCDPAAGQASQQADVWNHLVRFTFCKRDDTLDEAIRRLSVLAERPATGVPRGLEHHHHHH, MAVAGAVSGEPLVHWCTQQLRKTFGLDVSEEIIQYVLSIESAEEIREYVTDLLQGNEGKKGQFIEELITKWQKNDQELISDPLQQCFKKDEILDGQKSGDHLKRGRKKGRNRQEVPAFTEPDTTAEVKTPFDLAKAQENSNSVKKKTKFVNLYTREGQDRLAVLLPGRHPCDCLGQKHKLINNCLICGRIVCEQEGSGPCLFCGTLVCTHEEQDILQRDSNKSQKLLKKLMSGVENSGKVDISTKDLLPHQELRIKSGLEKAIKHKDKLLEFDRTSIRRTQVIDDESDYFASDSNQWLSKLERETLQKREEELRELRHASRLSKKVTIDFAGRKILEEENSLAEYHSRLDETIQAIANGTLNQPLTKLDRSSEEPLGVLVNPNMYQSPPQWVDHTGAASQKKAFRSSGFGLEFNSFQHQLRIQDQEFQEGFDGGWCLSVHQPWASLLVRGIKRVEGRSWYTPHRGRLWIAATAKKPSPQEVSELQATYRLLRGKDVEFPNDYPSGCLLGCVDLIDCLSQKQFKEQFPDISQESDSPFVFICKNPQEMVVKFPIKGNPKIWKLDSKIHQGAKKGLMKQNKAV, MAVEDEGLRVFQSVKIKIGEAKNLPSYPGPSKMRDCYCTVNLDQEEVFRTKIVEKSLCPFYGEDFYCEIPRSFRHLSFYIFDRDVFRRDSIIGKVAIQKEDLQKYHNRDTWFQLQHVDADSEVQGKVHLELRLSEVITDTGVVCHKLATRIVECQGLPIVNGQCDPYATVTLAGPFRSEAKKTKVKRKTNNPQFDEVFYFEVTRPCSYSKKSHFDFEEEDVDKLEIRVDLWNASNLKFGDEFLGELRIPLKVLRQSSSYEAWYFLQPRDNGSKSLKPDDLGSLRLNVVYTEDHVFSSDYYSPLRDLLLKSADVEPVSASAAHILGEVCREKQEAAVPLVRLFLHYGRVVPFISAIASAEVKRTQDPNTIFRGNSLASKCIDETMKLAGMHYLHVTLKPAIEEICQSHKPCEIDPVKLKDGENLENNMENLRQYVDRVFHAITESGVSCPTVMCDIFFSLREAAAKRFQDDPDVRYTAVSSFIFLRFFAPAILSPNLFQLTPHHTDPQTSRTLTLISKTVQTLGSLSKSKSASFKESYMATFYEFFNEQKYADAVKNFLDLISSSGRRDPKSVEQPIVLKEGFMIKRAQGRKRFGMKNFKKRWFRLTNHEFTYHKSKGDQPLYSIPIENILAVEKLEEESFKMKNMFQVIQPERALYIQANNCVEAKDWIDILTKVSQCNQKRLTVYHPSAYLSGHWLCCRAPSDSAPGCSPCTGGLPANIQLDIDGDRETERIYSLFNLYMSKLEKMQEACGSKSVYDGPEQEEYSTFVIDDPQETYKTLKQVIAGVGALEQEHAQYKRDKFKKTKYGSQEHPIGDKSFQNYIRQQSETSTHSI, MAVKDNYCVIMGGGIGSRFWPFSRESHPKQFLDFFGTGRSLLQMTYDRFARFIPRENILVVTNELYVDKVREQLPEIEPDQILREPTRRNTAPCIAYASYHIYARNPKANIIVAPSDHLILREDEFVRAASEALEFVADHEHLVTLGIRPSRPETGYGYIQMAEEKTGDFIRVKTFTEKPNAEMASIFLASGEFLWNSGMFVWNVESILAAFRKHLPEVTSSLENGLAHFNTPEERRFIDQAFPYCPSISIDFGVMEKADNVLVMPVDFGWADLGTWGSLYELAQKDDAGNASLKTRTLFYEAERNIVTTDNPQKLVVVQGINDCIVAESGNVLLICRAEEEQRIKHFVADAALKYDKEYN, MAVNQDTLYVKGDRNVEVTKREVTLGDLVSMECSNRVILPHLKTMKVLKIPENGEKRYVISILKIIACIHEKYPGLEVQNLGETDLIVTYEMQKTPSK, MAVYTDITEDELRNFLTQYDVGSLTSYKGIAEGVENSNFLLHTTKDPLILTLYEKRVEKNDLPFFLGLMQHLAAKGLSCPLPLPRKDGELLGELSGRPAALISFLEGMWLRKPEAKHCREVGKALAAMHLASEGFEIKRPNALSVDGWKVLWDKSEERADEVEKGLREEIRPEIDYLAAHWPKDLPAGVIHADLFQDNVFFLGDELSGLIDFYFACNDLLAYDVSICLNAWCFEKDGAYNVTKGKALLEGYQSVRPLSEAELEALPLLSRGSALRFFLTRLYDWLTTPAGALVVKKDPLEYLRKLRFHRTIANVAEYGLAGE, MAWAPPMAKRRSAPATQAAARTPGWTLGGLATILKGFSGQVQFVPEDYPVWLNRVLAEAQTGRGTVGVLGGLHGDFPPLVSRGLLEPLDGLYARLQDRGFPQAFVELGRMGTPNQQYLPWMQATYVMVARKEALKYLPPGADLNALTYEDLKNWAKAIQEATGQRRLGFPAGPGGLIHRFLQGYLYPSYTGSQVRRFKSPEAEAMWRDFRELWRYVNPRSTAYEFMQEPLLSGEVWIAWDHTARLKDALVQRPQDFVAFPAPAGPKGRGFMPVVAGLAIPKTAPDKRAAEALVDYLTRPEVQLLTLKEVGFFPVVRARYGEDLPEGIRLLAEAVSAQSSAKDALPSLLPVGLGDKGGEFNKVYRDAFTRIVLRGEEIRRALDLEAQNLARILRETGAPCWPPDAPSTGACPVE
